Source: US20240417458A1

Target: FcRn
Assay: SPR (BIAcore) at pH 6.0

Kd [nM]	Substance
1640	Non-specific IgG1 (antibody)
3640	Non-specific IgG4 (antibody)
